In article PMC10697951 one finds Kd data, which are given here for six substances.

Series [1] addresses SUV420H1(1-390) wild type (human) (UniProt Q4FZB7). As to the kind of experiment: MST. The conditions noted are these: MST: 20 mM HEPES pH 7.5, 50 mM NaCl (listed twice), 50 mM KCl, 1 mg/mL BSA, 0.05% Tween-20, 40 uM SAM, 2 mM DTT, room temperature, EMSA: 25 mM HEPES pH 7.5 ….
For series [2], the system named is SUV420H1(1-335) (human). The series can be described thus: MST. The conditions noted are these: histone H4 K20M; MST: 20 mM HEPES pH 7.5, 50 mM NaCl (listed twice), 50 mM KCl, 1 mg/mL BSA, 0.05% Tween-20, 40 uM SAM, 2 mM DTT, room temperature; EMSA: 25 mM HEPES pH 7.5 ….
Series [3] has as its system SUV420H1(63-390) (human). As to the kind of experiment: MST. Conditions: histone H4 K20M; MST: 20 mM HEPES pH 7.5, 50 mM NaCl (listed twice), 50 mM KCl, 1 mg/mL BSA, 0.05% Tween-20, 40 uM SAM, 2 mM DTT, room temperature; EMSA: 25 mM HEPES pH 7.5 ….
In series [4] the target is SUV420H1(1–390), wild type, with N-terminal 6× His-TEV tag (human) (UniProt Q4FZB7). The series can be described thus: MST; His-tagged SUV420H1 labelled with RED-tris-NTA (50 nM protein, 10 nM dye) kept constant; nucleosomes serially diluted from 6 μM to 45.75 pM; 20 mM HEPES pH 7.5, 50 mM NaCl, 50 mM KCl, 1 mg/mL BSA, 0.05% Tween-20, 40 μM SAM, 2 mM DTT; room temperature; triplicate.

For series [5], the target named is SUV420H1(1–335) (human) (UniProt Q4FZB7). Described as above.
Series [6] has as its target SUV420H1(1–390) K258A (human) (UniProt Q4FZB7). Described as above.
Series [7] concerns the target SUV420H1(1–390) R220A (human) (UniProt Q4FZB7). The description is as above.
Series [8] deals with SUV420H1(1–390) R257A (human) (UniProt Q4FZB7). Described as above.
For series [9], the target named is SUV420H1(1–390) R286A (human) (UniProt Q4FZB7). The description is as above.
Series [10] concerns the target SUV420H1(1–390) R352A (human) (UniProt Q4FZB7). The series is described as above.
Series [11] has as its target SUV420H1(1–390) R357A (human) (UniProt Q4FZB7). Described as above.
Series [12] concerns the target SUV420H1(1–390) R357H (human) (UniProt Q4FZB7). The series is described as above.
In series [13] the target is SUV420H1(1–390) S255F (human) (UniProt Q4FZB7). The description is as above.
The target of series [14] is SUV420H1(1–390) S283L (human) (UniProt Q4FZB7). The series is described as above.
The target in series [15] is SUV420H1(1–390) Y349A (human) (UniProt Q4FZB7). Described as above.
Series [16] concerns the target SUV420H1(63–390) (human) (UniProt Q4FZB7). The description is as above.

Chain of SUV420H1(1–390), wild type, with N-terminal 6× His-TEV tag (human) (Q4FZB7 1-390): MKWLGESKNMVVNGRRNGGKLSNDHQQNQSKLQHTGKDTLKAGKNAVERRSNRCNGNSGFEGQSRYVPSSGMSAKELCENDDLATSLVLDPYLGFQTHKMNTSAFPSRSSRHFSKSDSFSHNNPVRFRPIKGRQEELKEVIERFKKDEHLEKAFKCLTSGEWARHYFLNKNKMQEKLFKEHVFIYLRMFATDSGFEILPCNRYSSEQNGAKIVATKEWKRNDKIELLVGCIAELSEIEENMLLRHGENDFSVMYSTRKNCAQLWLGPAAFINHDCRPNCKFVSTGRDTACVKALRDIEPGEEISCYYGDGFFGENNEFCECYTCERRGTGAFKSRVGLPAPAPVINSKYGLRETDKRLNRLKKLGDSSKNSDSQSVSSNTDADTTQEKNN
Chain of SUV420H1(1-390) wild type (human) (Q4FZB7 1-390): as above
Chain of SUV420H1(1–390) R220A (human) (Q4FZB7 1-390 R220A): as the sequence (Q4FZB7 1-390) above, with R220A counted along it
Chain of SUV420H1(1–390) S283L (human) (Q4FZB7 1-390 S283L): as the sequence (Q4FZB7 1-390) above, with S283L counted along it
Chain of SUV420H1(1–390) K258A (human) (Q4FZB7 1-390 K258A): as the sequence (Q4FZB7 1-390) above, with K258A counted along it
Chain of SUV420H1(1–390) S255F (human) (Q4FZB7 1-390 S255F): as the sequence (Q4FZB7 1-390) above, with S255F counted along it
Chain of SUV420H1(1–390) R286A (human) (Q4FZB7 1-390 R286A): as the sequence (Q4FZB7 1-390) above, with R286A counted along it
Chain of SUV420H1(63–390) (human) (Q4FZB7 63-390): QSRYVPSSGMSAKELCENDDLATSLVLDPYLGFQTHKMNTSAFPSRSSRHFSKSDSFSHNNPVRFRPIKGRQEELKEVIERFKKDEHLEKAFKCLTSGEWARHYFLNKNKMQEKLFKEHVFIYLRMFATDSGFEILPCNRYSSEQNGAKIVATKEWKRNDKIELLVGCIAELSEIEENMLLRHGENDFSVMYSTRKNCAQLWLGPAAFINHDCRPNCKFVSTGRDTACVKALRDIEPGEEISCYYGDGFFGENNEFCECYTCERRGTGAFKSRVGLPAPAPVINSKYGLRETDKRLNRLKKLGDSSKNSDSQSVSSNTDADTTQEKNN
Chain of SUV420H1(1–390) R257A (human) (Q4FZB7 1-390 R257A): as the sequence (Q4FZB7 1-390) above, with R257A counted along it
Chain of SUV420H1(1–390) Y349A (human) (Q4FZB7 1-390 Y349A): as the sequence (Q4FZB7 1-390) above, with Y349A counted along it
Chain of SUV420H1(1–390) R357A (human) (Q4FZB7 1-390 R357A): as the sequence (Q4FZB7 1-390) above, with R357A counted along it
Chain of SUV420H1(1–335) (human) (Q4FZB7 1-335): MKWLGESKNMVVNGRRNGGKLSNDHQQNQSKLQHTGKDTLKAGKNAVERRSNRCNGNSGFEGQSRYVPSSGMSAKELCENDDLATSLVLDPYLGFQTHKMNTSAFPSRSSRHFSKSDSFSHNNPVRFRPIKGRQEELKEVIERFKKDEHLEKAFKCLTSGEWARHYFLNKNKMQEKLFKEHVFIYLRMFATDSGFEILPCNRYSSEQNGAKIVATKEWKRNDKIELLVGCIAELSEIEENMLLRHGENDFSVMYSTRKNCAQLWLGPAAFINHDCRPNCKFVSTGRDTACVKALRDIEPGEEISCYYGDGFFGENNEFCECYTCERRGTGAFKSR
Chain of SUV420H1(1–390) R352A (human) (Q4FZB7 1-390 R352A): as the sequence (Q4FZB7 1-390) above, with R352A counted along it
Chain of SUV420H1(1–390) R357H (human) (Q4FZB7 1-390 R357H): as the sequence (Q4FZB7 1-390) above, with R357H counted along it

In [1] (histone variant H2A.Z), NCP H2A.Z, H4K20 registered a Kd of 130 nM.

For NCP H2A, H4K20M, the dissociation constant (Kd) amounted to 292 nM in series [2], 62 nM in [1] (histone H4 K20M) and 410 nM in series [3].

On to “H2A.Z-containing nucleosome core particle with wild-type H4 (H4K20) (from UniProt P0C0S5 14-126; P06899 1-126; P68431 1-136; P62805 1-103) (complex)”, for which the Kd in [4] turned out to be 130 nM.

In [1], NCP H2A, H4K20 (canonical) came in with a Kd of 227 nM. That is a sub-micromolar value.

Turning to “H2A-containing nucleosome core particle with H4K20M (from UniProt P04908 16-130; P06899 1-126; P68431 1-136) (complex)”, the dissociation constant Kd in series [5] was 292 nM; in series [6], 112 nM; in [7], 93 nM; in series [8] it was 144 nM; in series [9], 323 nM; in series [10], 220 nM. Also, the Kd was determined as 213 nM in [11]; 83 nM in [12]; 182 nM in [13]; 85 nM in [14]; 108 nM in [15]; 62 nM in series [4]. Moreover, in series [16], the Kd is 410 nM.

Turning to “H2A-containing nucleosome core particle with wild-type H4 (H4K20) (from UniProt P04908 16-130; P06899 1-126; P68431 1-136; P62805 1-103) (complex)”, the Kd in series [4] was 227 nM.
